According to patent publication US20190218261A1, “TARGETED ENHANCED DNA DEMETHYLATION” (The Jackson Laboratory, priority 2016, published 2019):

Experiments:
[1] = tested on: CpGs of the hMLH1 promoter region; test: Bisulfite conversion and sequencing of hMLH1 promoter; type: cell-based, human; conditions: HEK293T; Casilio-ME days 3-6 post transfection; AzaC treatment for 6 days
Description: Casilio-mediated delivery of demethylation enzymes alters methylation state of targeted genomic locus. Evidence that the shown Casilio-ME-induced activation of hMLH1 transcription is a result of TET1-mediated cytosine demethylation within the targeted promoter region came from DNA sequencing of hMLH1 promoter after bisulfite conversion. Bisulfite treatment of genomic DNA deaminates unmethylated cytosines to produce uracils that are subsequently replicated as thymine. However, methylated cytosines are protected from conversion to uracils, thus allowing one to determine cytosine methylation states at single-nucleotide resolution by direct sequencing.
To assess changes in methylation states of CpG island within hMLH1 promoter region after Casilio-ME-mediated transcription activation, time course experiment were carried out where cells were collected 3, 4, 5, and 6 days post transfection, for analysis of cytosine methylation as well as transcription activation, and protein expression. HEK293T were transfected with Casilio-ME components that includes Ct-fusion PUFa-TET1 effector and a combination of 2 sgRNAs (RNA guides 3 and 7).
Bisulfite conversion and sequencing. Genomic DNAs were extracted using all AllPrep DNA/RNA/Protein Mini Kit according the manufacturer's instructions (Qiagen). […]

[2] = tested on: 5′-UGUGUGUG-3′ RNA (SEQ ID NO:13); conditions: cited from earlier work
[3] = tested on: TetO::tdTomato transgene in HEK293T/TetO::tdTomato cell line; test: TetO::tdTomato transgene activation measured by FACS; type: cell-based; conditions: for transgene activation with higher PBS copy numbers: 15, 20, and 47 copies of PBS
Description: In particular, to test whether appending PBS to the 3′ end of sgRNA affects sgRNA function, a series of modified Tet-targeting (sgTetO) or non-targeting control (sgControl) sgRNA were generated, […] domain-binding sequence (PBS) for PUF (3-2) (also simply referred to as PUFa) [PBS32 or PBSa: SEQ ID NO:8 (5′-UGUAUgUA-3′)], PUF(6-2/7-2) (also simply referred to as PUFb) [PBS6272 or PBSb: SEQ ID NO:9 (5′-UugAUAUA-3′)].
Cells were transfected with dCas9-VP64 with the different sgRNA scaffolds, and were analyzed by fluorescent-activated cell sorting (FACS) two days after transfection (FIG. 1B).
Cell Culture for Experiments. HEK293T cells were cultivated in Dulbecco's modified Eagle's medium (DMEM)(Sigma) with 10% fetal bovine serum (FBS)(Lonza), 4% Glutamax (Gibco), 1% Sodium Pyruvate (Gibco) and penicillin-streptomycin (Gibco). Incubator conditions were 37° C. and 5% CO2. For activation experiments, cells were seeded into 12-well plates at 100,000 cells per well the day before being transfected with 200 ng of dCas9 construct, 100 ng of modified sgRNA and 100 ng of PUF-fusion with Attractene transfection reagent (Qiagen). After transfection, cells were grown for 48 hrs and harvested for either RNA extraction or fluorescent-activated cell sorting (FACS). For dual activation-repression experiments, transfection remained the same, however cells were seeded into 12-well plates at 150,000 cells per well and were grown for 72 hrs before being harvested for FACS. For experiments with OCT4 and SOX2 dual activation-repression, cells were triple-sorted by BFP (for the activator-repressor module PUFb-p65HSF1/BFPKRAB-PUFa), mCherry (for dCas9mCherry) and GFP (for the sgRNA-PBS on vectors co-expressing EGFP) before RNA extraction. […]
Fluorescent-Activated Cell Sorting. […] Samples were analyzed on a FACScalibur flow cytometer using CellQuest Pro software (BD Bioscience). […] were collected in each run.

[4] = tested on: SOX2 gene expression (SOX2 promoter) in HEK293T cells; test: SOX2 expression by quantitative reverse-transcription PCR after Dnmt effector targeting; type: cell-based; conditions: guides targeting SOX2 promoter, compared to direct dCas9 fusions
Method: Establishment of a dCas9-expressing cell line. The day prior to transfection, Lenti-X 293T cells were seeded into 6-well plates at 1.2 million cells per well. The cells were transfected with the supercoiled packaging plasmids (pLP1 (gag/pol), pLP2 (rev), and VSV-G (envelope)) and a dCas9 lentiviral expression plasmid through Lipofectamine 3000 reagent (Invitrogen). At 6 h posttransfection, medium was exchanged for fresh. At 24 h posttransfection, 2 ml of medium containing the lentivirus were collected and centrifuged for 10 minutes at 2,000 rpm to remove cellular debris. The supernatant was filtered utilizing a […] pore filter (Millipore), and the lentivirus was frozen at −80° C. until needed. HEK293T cells, seeded into a 12-well plate at 150,000 cells per well, were transduced with 500 μl of the dCas9 lentivirus in culture medium supplemented with 5 μg/ml polybrene for 12 hours, and subsequently selected with Blasticidin antibiotics on the third day post transduction.
Transfection. HEK293T, and HEK293T/dCas9 cell lines were seeded into 12-well plates at 150,000 cells per well. […] At 3 day post-transfection, the cells were sorted for GFP (sgRNA expression constructs are marked by GFP) with fluorescence-activated cell sorting (FACS) and re-plated into 12 or 24-well plates.
Quantitative reverse-transcription PCR. […]

Molecule: Nc1ncn([C@@H]2O[C@H](CO)[C@@H](O)[C@H]2O)c(=O)n1 [5′azacytidine, 5-Azacytidine]
- frequency of bisulfite conversion (cytosine demethylation) at CpGs of hMLH1 promoter [1]: increased bisulfite conversion frequency on multiple CpG sites within the promoter region

B1: PUF^531: PUF domain with mutations Q867E/Q939E/C935S/Q1011E/C1007S; SEQ ID NO:22 (protein)
chain: GRSRLLEDFRNNRYPNLQLREIAGHIMEFSQDQHGSRFIELKLERATPAERQLVFNEILQAAYQLMVDVFGNYVIQKFFEFGSLEQKLALAERIRGHVLSLALQMYGSRVIEKALEFIPSDQQNEMVRELDGHVLKCVKDQNGNHVVQKCIECVQPQSLQFIIDAFKGQVFALSTHPYGSRVIERILEHCLPDQTLPILEELHQHTEQLVQDQYGNYVIQHVLEHGRPEDKSKIVAEIRGNVLVLSQHKFASNVVEKCVTHASRTERAVLIDEVCTMNDGPHSALYTMMKDQYANYVVQKMIDVAEPGQRKIVMHKIRPHIATLRKYTYGKHILAKLEKYYMKNGVDLG
- affinity for new target RNA sequence compared to wild type PUF RNA [2]: very high affinity

B2: PUFa-VP64: NLS-PUFa-VP64 fusion; SEQ ID NO:32 (protein)
chain: MGILPPKKKRKVSRGRSRLLEDFRNNRYPNLQLREIAGHIMEFSQDQHGSRFIQLKLERATPAERQLVFNEILQAAYQLMVDVFGNYVIQKFFEFGSLEQKLALAERIRGHVLSLALQMYGSRVIEKALEFIPSDQQNEMVRELDGHVLKCVKDQNGNHVVQKCIECVQPQSLQFIIDAFKGQVFALSTHPYGCRVIQRILEHCLPDQTLPILEELHQHTEQLVQDQYGNYVIQHVLEHGRPEDKSKIVAEIRGNVLVLSQHKFASNVVEKCVTHASRTERAVLIDEVCTMNDGPHSALYTMMKDQYANYVVQKMIDVAEPGQRKIVMHKIRPHIATLRKYTYGKHILAKLEKYYMKNGVDLGGPAGSGRADALDDFDLDMLGSDALDDFDLDMLGSDALDDFDLDMLGSDALDDFDLDMLYID
- transgene activation with higher PBS copy numbers [3]: slightly lower, albeit still substantial transgene activation
- activation of TetO::tdTomato with only one PBSa ([3]; sgRNA with one PBSa): not observed

B3: PUFb-VP64: NLS-PUFb-VP64 fusion; SEQ ID NO:33 (protein)
chain: MGILPPKKKRKVSRGRSRLLEDFRNNRYPNLQLREIAGHIMEFSQDQHGSRFIQLKLERATPAERQLVFNEILQAAYQLMVDVFGNYVIQKFFEFGSLEQKLALAERIRGHVLSLALQMYGCRVIQKALEFIPSDQQNEMVRELDGHVLKCVKDQNGNHVVQKCIECVQPQSLQFIIDAFKGQVFALSTHPYGCRVIQRILEHCLPDQTLPILEELHQHTEQLVQDQYGSYVIEHVLEHGRPEDKSKIVAEIRGNVLVLSQHKFANNVVQKCVTHASRTERAVLIDEVCTMNDGPHSALYTMMKDQYANYVVQKMIDVAEPGQRKIVMHKIRPHIATLRKYTYGKHILAKLEKYYMKNGVDLGGPAGSGRADALDDFDLDMLGSDALDDFDLDMLGSDALDDFDLDMLGSDALDDFDLDMLYID
- transgene activation with higher PBS copy numbers [3]: slightly lower, albeit still substantial transgene activation

B4: Dnmt3a-PUF: Dnmt3a catalytic region fused to N-terminus of PUFa; SEQ ID NO:65 (protein)
chain: MGPANHDQEFDPPKVYPPVPAEKRKPIRVLSLFDGIATGLLVLKDLGIQVDRYIASEVCEDSITVGMVRHQGKIMYVGDVRSVTQKHIQEWGPFDLVIGGSPCNDLSIVNPARKGLYEGTGRLFFEFYRLLHDARPKEGDDRPFFWLFENVVAMGVSDKRDISRFLESNPVMIDAKEVSAAHRARYFWGNLPGMNRPLASTVNDKLELQECLEHGRIAKFSKVRTITTRSNSIKQGKDQHFPVFMNEKEDILWCTEMERVFGFPVHYTDVSNMSRLARQRLLGRSWSVPVIRHLFAPLKEYFACVIDGGGGSDPKKKRKVDPKKKRKVDPKKKRKVGSTGSRNDGGGGSGGGGSGGGGSGRAGILPPKKKRKVSRGRSRLLEDFRNNRYPNLQLREIAGHIMEFSQDQHGSRFIQLKLERATPAERQLVFNEILQAAYQLMVDVFGNYVIQKFFEFGSLEQKLALAERIRGHVLSLALQMYGSRVIEKALEFIPSDQQNEMVRELDGHVLKCVKDQNGNHVVQKCIECVQPQSLQFIIDAFKGQVFALSTHPYGCRVIQRILEHCLPDQTLPILEELHQHTEQLVQDQYGNYVIQHVLEHGRPEDKSKIVAEIRGNVLVLSQHKFASNVVEKCVTHASRTERAVLIDEVCTMNDGPHSALYTMMKDQYANYVVQKMIDVAEPGQRKIVMHKIRPHIATLRKYTYGKHILAKLEKYYMKNGVDLGDPKKKRKVDPKKKRKVGGRGGGGSGGGGSGGGGSGPA
- repression of SOX2 gene expression [4]: more robust repression of SOX2 gene expression compared to direct fusions
